{"source": "patent US20020002277A1", "about": "“Inhibitors of platelet activation and recruitment” (priority 1998, published 2002)", "key": {"[1]": {"assay": "Phosphate release assay for ATPase activity", "assay_type": "biochemical", "settings": "for CPM × 10^3 (net counts), ATPase activity in CM: 5 days (Table 3)", "description": "This example describes an ATPase assay that may be used to track enzyme activity. Samples (approximately 100 μl of either concentrated CM or purified polypeptide) are combined with 20 μl of 10X assay buffer (200 mM HEPES, 1.2 M NaCl, 50 mM KCl, 15 mM CaCl2, 15 mM MgCl2 and 3 mM ATP) and sterile water is added to a final volume of 200 μl. Radiolabeled ATP (0.8 μCi γ [^32P] ATP; Amersham, Arlington Heights, Ill.) is added and the mixture incubated for 20 minutes at 37° C. Stop mix (0.5 ml of 20% activated charcoal/1 M HCl) is added and the reaction is placed on ice for 10 minutes. After centrifugation (14K rpm for 10 minutes), the supernatant is assayed for free ^32P using a scintillation counter. Data are expressed as raw counts or net counts, or as picomoles of ATP degraded per minute.\nThe transfections were repeated and the CM (10, 20 and 30 μL, unconcentrated) was assayed essentially as described in Example 7. […] ATPase levels in CM from COS-1 cells transfected with pIL2LFlagSolCD39 increased with time in culture over at least 4 days post-transfection.\nTo determine whether activity was affected by removal of the N-terminal FLAG® tag, COS-1 cells were transfected with pIL2LFlagSolCD39 and pIL2LSolCD39 and supernatants (sups) were harvested after 5 days. Samples of 10, 20 and 30 μL of 1x sups were assayed for ATPase activity as described in Example 7.\nThe expression of Trim1 and Trim2 constructs was analyzed in COS-1 cells cultured in 10 cm plates. After 5 days of incubation, 1x supernatants were examined via ELISA (using anti-CD39) and the phosphate-release assay described in Example 7. […] Expression levels, however, appeared to be reduced 3-4 fold."}, "[2]": {"assay": "Phosphate release assay for ATPase activity", "assay_type": "biochemical", "settings": "100 μL of 10-fold concentrated CM from COS-1 transfectants; 10X buffer with 30 mM cold ATP"}, "[3]": {"target": "T1, N-terminally FLAG-tagged soluble human CD39 secreted from COS-1 cells transfected with pIL2LFlagSolCD39 (human, UniProt P49961 38-476)", "T1 construct": "The cleavage site of the leader was not determined for the FLAG-tagged form; In conditioned medium, about 66 kD, glycosylated; also called pIL2LFlagSolCD39 product; tagged soluble CD39", "T1 sequence": "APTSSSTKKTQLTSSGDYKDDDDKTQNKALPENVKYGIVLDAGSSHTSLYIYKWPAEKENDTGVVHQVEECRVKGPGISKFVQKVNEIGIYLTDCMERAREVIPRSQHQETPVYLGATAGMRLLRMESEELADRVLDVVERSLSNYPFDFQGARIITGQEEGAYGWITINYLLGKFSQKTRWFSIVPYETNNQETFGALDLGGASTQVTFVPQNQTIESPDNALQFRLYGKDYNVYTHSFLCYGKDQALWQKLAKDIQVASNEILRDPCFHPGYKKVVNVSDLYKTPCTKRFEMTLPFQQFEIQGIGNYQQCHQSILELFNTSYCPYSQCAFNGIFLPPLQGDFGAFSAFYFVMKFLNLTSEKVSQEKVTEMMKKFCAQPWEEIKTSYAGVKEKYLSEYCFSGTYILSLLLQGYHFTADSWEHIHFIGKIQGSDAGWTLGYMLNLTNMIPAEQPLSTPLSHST", "assay": "immunoaffinity depletion of COS-1 conditioned medium with conjugated Affigel beads, ATPase activity left in the supernatant", "description": "CM was collected from COS-1 cells transfected with pIL2LFlagSolCD39, which had been cultured for 5 days in DMEM/F12 supplemented with 5% FCS. A 100 μl aliquot of drained Affigel beads (AG) conjugated with either chicken ovalbumin, antiFLAG mAb, or anti-CD39 mAb was added per ml of CM. […] Each cycle involved continuous gentle agitation of the slurry for 14 h at 4° C. followed by centrifugation to recover supernatants for a subsequent binding cycle or for ATPDase activity measurements."}, "platelets": {"system": "platelets", "assay": "Platelet aggregation in platelet-rich plasma from volunteers", "assay_type": "cell-based, human", "settings": "alanine replacement mutant", "procedure": "After obtaining informed consent from volunteers, blood was collected via plastic tubing using acid citrate-dextrose (38 mM citric acid; 75 mM sodium citrate; 135 mM glucose) as anticoagulant. Where indicated, volunteers had ingested 650 mg acetylsalicylic acid (ASA) 18 h prior to blood donation. Platelet-rich plasma (PRP) was prepared with an initial whole blood centrifugation (200 g, 15 min, 25° C.), and a second centrifugation of the PRP (90 g, 10 min) to eliminate residual erythrocytes and leukocytes. The stock suspension of PRP was maintained at room temperature under 5% CO2-air.\nTotal volumes were adjusted to 300 μl with TSG buffer (Marcus et al., J. Clin. Invest. 88:1690, 1991; Marcus et al., J. Clin. Invest. 99:1351, 1997). After the 3 min preincubation, platelet agonists (ADP or collagen) were added at the concentrations indicated, and the aggregation response recorded for 4-5 min."}, "[4]": {"assay": "Enzymatic (ATPase and ADPase) activity of site-directed CD39 mutants", "assay_type": "biochemical", "settings": "alanine replacement in conserved apyrase regions", "description": "Mutants were assayed for enzymatic (ATPase and ADPase) and platelet inhibitory (dose-dependent inhibition of platelet aggregation) activities. For one series of mutants, residues within the conserved apyrase regions were replaced with alanine."}}}
{"molecule": "pIL2LFlagSolCD39: N-terminally FLAG-tagged solCD39 with human proinsulin/IL2 leader and 12 mature IL2 residues (SEQ ID NO:25); COS-1 CM (protein, CDS (1)..(1461), COS-1 CM) MALWIDRMQLLSCIALSLALVTNSAPTSSSTKKTQLTSSGDYKDDDDKTQNKALPENVKYGIVLDAGSSHTSLYIYKWPAEKENDTGVVHQVEECRVKGPGISKFVQKVNEIGIYLTDCMERAREVIPRSQHQETPVYLGATAGMRLLRMESEELADRVLDVVERSLSNYPFDFQGARIITGQEEGAYGWITINYLLGKFSQKTRWFSIVPYETNNQETFGALDLGGASTQVTFVPQNQTIESPDNALQFRLYGKDYNVYTHSFLCYGKDQALWQKLAKDIQVASNEILRDPCFHPGYKKVVNVSDLYKTPCTKRFEMTLPFQQFEIQGIGNYQQCHQSILELFNTSYCPYSQCAFNGIFLPPLQGDFGAFSAFYFVMKFLNLTSEKVSQEKVTEMMKKFCAQPWEEIKTSYAGVKEKYLSEYCFSGTYILSLLLQGYHFTADSWEHIHFIGKIQGSDAGWTLGYMLNLTNMIPAEQPLSTPLSHST", "values": [{"measurement": "CPM × 10^3 (net counts), ATPase activity in CM", "setting": "[1]; 10 μL 1x COS-1 supernatant", "value": 23.6, "unit": "CPM × 10^3"}, {"measurement": "CPM Release × 10^3 (net counts), ATPase activity in CM", "setting": "[1]; 10 μL unconcentrated COS-1 CM", "value": 24.71, "unit": "CPM × 10^3"}, {"measurement": "CPM × 10^3 (net counts), ATPase activity in CM", "setting": "[1]; 20 μL 1x COS-1 supernatant", "value": 40.2, "unit": "CPM × 10^3"}, {"measurement": "CPM Release × 10^3 (net counts), ATPase activity in CM", "setting": "[1]; 20 μL unconcentrated COS-1 CM", "value": 43.92, "unit": "CPM × 10^3"}, {"measurement": "CPM × 10^3 (net counts), ATPase activity in CM", "setting": "[1]; 30 μL 1x COS-1 supernatant", "value": 54.4, "unit": "CPM × 10^3"}, {"measurement": "CPM Release × 10^3 (net counts), ATPase activity in CM", "setting": "[1]; 30 μL unconcentrated COS-1 CM", "value": 56.93, "unit": "CPM × 10^3"}, {"measurement": "CPM Release × 10^3 (raw counts), ATPase activity in concentrated CM", "setting": "[2]", "value": 99.96, "unit": "CPM × 10^3"}]}
{"molecule": "chicken ovalbumin conjugated to Affigel beads (other, UniProt P01012 2-386, looked up, Control beads; also called ovalbumin-conjugated AG; ovalbumin-conjugated beads) GSIGAASMEFCFDVFKELKVHHANENIFYCPIAIMSALAMVYLGAKDSTRTQINKVVRFDKLPGFGDSIEAQCGTSVNVHSSLRDILNQITKPNDVYSFSLASRLYAEERYPILPEYLQCVKELYRGGLEPINFQTAADQARELINSWVESQTNGIIRNVLQPSSVDSQTAMVLVNAIVFKGLWEKAFKDEDTQAMPFRVTEQESKPVQMMYQIGLFRVASMASEKMKILELPFASGTMSMLVLLPDEVSGLEQLESIINFEKLTEWTSSNVMEERKIKVYLPRMKMEEKYNLTSVLMAMGITDVFSSSANLSGISSAESLKISQAVHAAHAEINEAGREVVGSAEAGVDAASVSEEFRADHPFLFCIKHIATNAVLFFGRCVSP", "values": [{"measurement": "binding result", "setting": "[3]", "value": "no binding"}]}
{"molecule": "E174A mutant: CD39 mutant, Glutamate 174 replaced with alanine (protein, UniProt P49961 1-510, looked up, variant E174A) Ectonucleoside triphosphate …: MEDTKESNVKTFCSKNILAILGFSSIIAVIALLAVGLTQNKALPENVKYGIVLDAGSSHTSLYIYKWPAEKENDTGVVHQVEECRVKGPGISKFVQKVNEIGIYLTDCMERAREVIPRSQHQETPVYLGATAGMRLLRMESEELADRVLDVVERSLSNYPFDFQGARIITGQEAGAYGWITINYLLGKFSQKTRWFSIVPYETNNQETFGALDLGGASTQVTFVPQNQTIESPDNALQFRLYGKDYNVYTHSFLCYGKDQALWQKLAKDIQVASNEILRDPCFHPGYKKVVNVSDLYKTPCTKRFEMTLPFQQFEIQGIGNYQQCHQSILELFNTSYCPYSQCAFNGIFLPPLQGDFGAFSAFYFVMKFLNLTSEKVSQEKVTEMMKKFCAQPWEEIKTSYAGVKEKYLSEYCFSGTYILSLLLQGYHFTADSWEHIHFIGKIQGSDAGWTLGYMLNLTNMIPAEQPLSTPLSHSTYVFLMVLFSLVLFTVAIIGLLIFHKPSYFWKDMV", "values": [{"measurement": "effect on platelet responsiveness", "setting": "platelets", "value": "no effect on platelet responsiveness"}, {"measurement": "enzymatic activity of mutant", "setting": "[4]", "value": "completely devoid of enzymatic activity"}]}
